The experiment deals with recombinant B7-H4 protein (Phe29 to Ala258) (Homo sapiens, UniProt Q7Z7D3). The experiment is described as follows: ELISA. A general note: In an ELISA, binding on a coated surface is turned into a signal by an enzyme label.

As a reminder, the EC50 is the concentration giving half of the maximal effect.

Chain of recombinant B7-H4 protein (Phe29 to Ala258) (Q7Z7D3 29-258): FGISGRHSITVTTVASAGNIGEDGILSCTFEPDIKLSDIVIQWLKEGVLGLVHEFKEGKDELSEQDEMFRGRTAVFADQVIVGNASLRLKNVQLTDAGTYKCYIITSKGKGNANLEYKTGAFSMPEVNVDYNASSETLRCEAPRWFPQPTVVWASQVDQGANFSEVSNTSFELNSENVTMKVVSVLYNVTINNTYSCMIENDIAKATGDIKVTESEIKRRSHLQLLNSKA

B1: anti-B7-H4 scFv S2 (scFv, V domains shown)
VH: AVTLDESGGGLQTPGGGLSLVCKASGFTFSSYGMGWMRQVPGKGLEYVAVIDAGSGTWYATAVKGRATISRDNGQSTVRLQLNNLRAEDTATYYCAKSANAGAPDGAWIDAWGHGTEVIVSS
VL: LTQPSSVSANLGGTVEITCSGGSGGYGWFQQKSPGSAPVTLIYNNNKRPSDIPSRFSGSKSGSTATLTITGVRAEDEAVYYCGGWDSIDSGIFGAGTTLTVL
As to B1, the concentration giving a half-maximal response (EC50) is roughly 22 nM.

B2: anti-B7-H4 scFv S4 (scFv, V domains shown)
VH: AVTLDESGGGLQTPGGALSLVCKASGFTFSSYGMGWMRQVPGKGLEYVAVIDAGSGTWYATAVKGRATISRDNGQSTVRLQLNNLRAEDTATYYCAKSANAGAPDGAWIDAWGHGTEVIVSS
VL: LTQPSSVSANLGETVKITCSGGSYSYGWYQQKSPGSAPVTVIYDNNKRPSDIPSRFSGSKSGSTGTLTITGVQAEDEAIYYCGSRDSNTGYAAFGAGTTLTVL
With B2, the EC50 was roughly 33 nM.

For the origin of these results see article PMC8390317 (Experimental Animals, 2021).
